The test system of data set [1] is normal melanocytes. As to the kind of experiment: Immunostaining of frozen sections of normal human skin. The following applies: frozen unfixed sections, 400× magnification. On the procedure:
To determine whether there is a difference in expression of SEAM 3-reactive antigen between normal melanocytes and melanoma tumor cells, immuno-staining of thin sections of each type of tissue were performed. In addition to SEAM 3, controls included the secondary antibody alone and R24, which binds to the ganglioside GD3 that is expressed in normal melanocytes and is overexpressed in some melanomas (Dippold et al. Proc Natl Acad Sci USA, 1980. 77(10): 6114-8.; Graus, et al., Brain Res, 1984. 324(1): 190-4; Houghton et al. Proc Natl Acad Sci USA, 1985. 82(4):1242-6; Panneerselvam et al. J Immunol, 1986. 136(7): 2534-41; Real et al. Cancer Res, 1985. 45(9): 4401-11; Vadhan-Raj et al. J Clin Oncol, 1988. 6(10): 1636-48; Welt t al. Clin Immunol Immunopathol, 1987. 45(2): 214-29).
The tissue sections were made from frozen samples of normal skin (HuSkinTb111 in FIG. 39) and two human melanomas (HuMel1151 and HuMel4034). To prevent the possibility of blocking de-N-acetyl antigen or extracting a lipid containing the antigen, the sections were prepared from frozen tissue and were dried onto the slides but not fixed with aldehydes or organic solvents (Chammas et al. Cancer Res, 1999. 59(6): 1337-46). […] Bound antibody was then detected using the DAKO LSAB kit following the manufacturer's directions (Thermo Fisher Scientific, Waltham, Mass.). […]

The test system of data set [2] is human tumors. Nature of the data set: Immunohistochemistry on formalin-fixed paraffin embedded tissue microarrays of human tumors. The following applies: primary antibody 1 to 5 μg/ml; 47 human tumors. On the procedure: Initial immunohistochemical analysis of antigens recognized by SEAM 3 was performed on unfixed tissues out of concern that the de-N-acetyl amino groups could be blocked by reaction with formaldehyde (vide supra). Subsequently, it was determined that the amino group in de-N-acetyl sialic acid is relatively unreactive as a result of its close proximity to the C1 carboxyl group. Therefore, large scale screening of human tumors for the presence of SEAM 3-reactive antigens was performed using formalin-fixed paraffin embedded tissue sections since processing the samples by this method considerably improves the preservation of cell structural features.
Human tissue microarrays were obtained from US BioMax (Rockville, Md.). The tissue microarrays were deparaffinized in xylene (2 changes, 10 minutes each) then rehydrated by sequential 5 minute washes in 100% ethanol, 95% ethanol, 70% ethanol, 50% ethanol, and PBS buffer. Endogenous peroxidase was blocked by incubation with Peroxidazed 1 solution (Biocare, Concord, Calif.) for 5 minutes at ambient temperature. The sections were blocked with Terminator (Biocare) containing streptavidin then rinsed with PBS buffer. […]

Data set [3] has as its system SK-MEL 28 cells. Nature of the data set: Cell viability by ViaCount Reagent flow cytometry. Format: cell-based, human. On the procedure: Cell viability of SK-MEL 28 cells incubated in the presence of SEAM 3 or control mAbs (irrelevant isotype IgG2b or anti-GD3, R24) was determined using ViaCount Reagent (Guava Technologies, Hayward, Calif.), as per manufacturers instructions. […] The viability was analysed using a pre-set program on the Guava EasyCyte flowcytometer. The program has a preset gate for apoptosis and this was routinely incorporated into our studies.
For orientation: In flow cytometry, cells or beads pass a laser one at a time.

B1: SEAM 3: murine anti-N-Pr NmB polysaccharide monoclonal antibody (IgG2b), ATCC Deposit No. HB-12170 (antibody, V domains shown)
VH: EVKLQESGGGLVQPGDSLSLSCAASGFTFTPYYMGWVRQPPGKALEWLGYIRNKANGYTTEYSASVKGRFTISRDNSQSILYLQMNALRAEDSATYYCARYARGTVDSWGQGTTLTVS
VL: DIVMTQSPLTLSVTIGQPASISCKSSQSLLHSNGKTYLNWLLQRPGQSPKLLIYLVSKLESGVPDRFSGSGSGTDFTLKISRVEAEDLGLYYCLQIIHFPHTFGAGTKLELKRA
modifications: mouse
Consider B1, for which the “immunostaining of normal human skin” value in data set [1] is “binds to an antigen in neural like structures of the dermis but is not present in melanocytes”. Moreover, the “tumor samples positive for binding” value in data set [2] is listed as 38 of 47. Further, in data set [3] (5 μg/ml, 24 h incubation), the “number of viable cells compared to irrelevant IgG2b control mAb” value is listed as “significantly decreases the number of viable cells”. In addition, in data set [3] (5 μg/ml, 48 h), the “number of apoptotic cells compared to IgG2b control mAb” value is recorded as “increases the number of apoptotic”, the “number of dead cells compared to IgG2b control mAb” value is listed as “increases” and the “number of viable cells compared to IgG2b control mAb” value is “decreases the number of viable cells”. In addition, the cytotoxic effect entry in data set [3] (SK-MEL-28 melanoma, approximately proportional to level of antigen on cell surface) is recorded as “cytotoxic effect of SEAM 3 was observed”.
